Reference: the DeepSol protein solubility set

Assay: soluble on expression in E. coli; label from the status in PepcDB or PDB records

Soluble on expression in E. coli, not soluble:
MGSDKIHHHHHHMIQLAFTKTEISADTAVKQGAALRQMNELLERLSTAPKYHTLTKKDRAQLSREGYAADLVDNLVLITQRKEESTVTDNDNLVVGFTYAAFDPALYANETLKNHFKQMSQGCCCFCESFLMPTASGHISHYRPVQQLDLEGVEHTKPNSECSPYFSEAYQQENLVYVCSGCDVTHKAGRFPIAGERFPHVALSTENALLVNPYQENPRDFIRFNLCNGHAYPFDQACAFYADTQKLTEQDVEALLWKTPSAIPNQVDEAGALLTDSGVEQAFTFWLKSEASQRQSSRGAVTIVTLGLNRSDLVLARLMTLKQYHNDFITHKAALAQPLMPEDIATIAYRSLALDAFATWQSIANGTGSNLANNEGTNKGTNKGTNIGTNIGASEDTNVANSLPLMANTVLKLREQANNTVENPELDILLPSWFRCCLSYLVLESELQQTGKRRLVFLCNQDRLYGETDTEKCIFLSIKWQRDLHKVIKVRSKRNIWEASFSELANSRPHELINLFANNDVWVEGNFQPLA, MQMLDRLESEILADRVSEESRRWLASCGLTVEQMKNQMDPVYTPARKIHLYHCDHRGLPLALISTEGATAWCAEYDEWGNLLSDENPHHLQQLIRLPGQQYDEESGLYYNRHRYYDPLLGRYITQDPIGLKGGWNFYQYPLNPVINVDPQGLVDINLYPESDLIHSVADEINIPGVFTIGGHGTPTSIESATRSIMTAKDLAYLIKFDGNYKDGMTVWLFSCNTGKGQNSFASLEHHHHHH, MAEASSANLGSGCEEKRHEGSSSESVPPGTTISRVKLLDTMVDTFLQKLVAAGSYQRFTDCYKCFYQLQPAMTQRIYDKFIAQLQTSIREEISDIKEEGNLEAVLNALDKIVEEGKVRKEPAWCEAQRCRVQQRCSLCVQAGGQRGSEETQALPVSMAGSPSPLPGSPGAQEGGV, MGGLFVTPAKAVKTTNYAEEIAALQPGTTPEEIMKSASQIAKQQHVKQDVILKQFYKEITADKAEGDRLAKESGMSIMGGSSGTKKLPTSAKGNIYYTNSYTAYYNHGHVGMYSAADKIVESVPSDGVRQIAYNARDVEDNSIVQTVSVSSSQKTAAADWAVSKVGDPYSFNFVNNRNTGHDGAKNCSKLLWSAFLLKAGIDIDSNGGLGVYPRDITSSSYTTTIMTIYLEHHHHHH, MSLEPVQDDSVSGNFYISGKYMPSASHFGVFSAKEEKNPTVALYGLKQDWNGVSASSHADADFNNKGYSFKYENNPFLGFAGAIGYSMGGPRIEFEVSYETFDVKNQGGNYKNDAHRYCALDRKASSTNATASHYVLLKNEGLLDISLMLNACYDVVSEGIPFSPYICAGVGTDLISMFEAINPKISYQGKLGLSYSINPEASVFVGGHFHKVAGNEFRDISTLKAFATPSSAATPDLATVTLSVCHFGVELGGRFNFEGHHHHHH, MKTARLLSSGALALSLLAGSVTAAVSPDEAAKLGSSLTPIGAQKEGNADGSIPAWTGGLAASAGKVDGKGFLSDPFADEKPLFTITAQNVEQYKDKLSDGQLAMFKRYPETYRIPVYKTHRTVALPAEIDEAVKQSALNVQPINDGNGLSNFEKSRYYAFPIPKNGVEVLWNHITRYRGGNLKRTIVQATPQTNGSFTPIRFEESVAFPQNMPDLDQSKAANILTFFKQQVTAPARLAGNVLLVHETLDQVKEPRLAWVYNAGQRRVRRAPQVAYDGPGTAADGLRTSDNFDMFSGAPDRYDWKLVGKREMYIPYNAYKLNDPTLKYSDIIKAGHINQDLTRYELHRVWEVVGTVKPGERHIYAKRHMYIDEDSWQIALVDHYDGRGQLWRVGEGHAQYHYDQKVAGYTLEALYDVIAGRYLALGMNNEEKRGYEFGFKASSADYTPAALRNAGVR, IDQLNRNQLDLGMCYVDQVNTAYFDVIELDSTKLGVLFDERHFDFAESEVLWESLNNIPLGLLSKGMHYRHSIDLSFVSKGLVPQTVIESNSTFHLIQAVTSGLCCAIMPLNCGLEELNDTLRIIPIEEAAVHAPLGLLKRKQEPFSALTDQCFAEAKNIFNR, MSLNIQQQVNEMFSGMINVTSPGAYKTATRGVITGGSVVLRNRISTANLISITPPSAKGGCGGINLYSGSFSFINGEEFVALMRNVASNAAGIVSGFAFELALDAMDAQTGGVIRNLANKIQALNQMFSNSCQLASGLVTNAKKAYEESTDFKSAMTAFGSNVSSDFFTAKSTKEDSPANRIAASGKAVQCENTGNVLWCAMMKSGLQSQILFGSDENAEFIMSMVGSYNVSLTNDASGGKNFAAHPMPKLITGEGLKILVEGSTNLDVKVYQCDQDDPDCSEPNIRTLTSFKGLETRILEDLQNNGILERFANGTATAADGNRIAYLASSRVGVNLMKITQKAGAQSGYDYLNQFAKKIAADASMSLIYQLLGHTEKGLTSLNMADAGKVIEDLRATKGELMDEYRSYIEDAMQGKDADGQAEKMLQMAPVFDSGTLPQGTINDNAGAEGHHHHHH, MSERQSKYFDYQGIVISSTGQDNQDSETDLVYLIQAHGKAAPKNIMYGVSKCAFVPTNLERNFDNIEEAKNLERRSKIPLKFGEVILWNESDCDHDKRIILHIKREKPIYEASSSRNGLILKVGGVIQPTSTTSFWTPLCTVTMPETEATRAEPDVWLYAWIRFETTMKSGLDPFNMTATFESFDSCDPSDQARVCEAPWNAGSPDSKFGVWRPDPKPADSDDEIDIEPREGWHLPEDKWAEVIKMQLGLYVGERLLICKELSQFDFIIPLQKPFSRGTDKTLIYPAVGEYFHFSAIWSMQHNGFLIYELQPVPLLRQHVTSVNGNLLTRVVPASIRGLFVDKEGTLGLIDDPHHLLSFFEFHPAGYEFLKAMAEVRAVRTSENKSVRYRIVRTSGMSIFENWLRDTQFVVGPVKGIRINEDTVICAKHPNVYFKIPNNLKEGIPIGGGVQFVGKRQAGVDSEIMITECSPCPAFTCKNYSVSGDTRLFQVYLKPNCDHEQLAESDSMGFVDFRELETPCRGKFLAWVRESITVNDCRRAATIMEVCSTAICPPLIAMSANSSRATSARTTPAGSSIGSRSSIQSRASAATSVSSNRFVGPSSRRTPSGTPQSSTSSRV, MDYKSKTANDKEISIYYFSATGNSLKLSQDIAAAFGGAGLFRMTPSAGITASDSRIVGFIFPVYMGGLPGIVRRFLESYPFRKGVYYFSIGTYYTYKGCAVSVVDKIMSGKGVRLDYGYNLPTVGNCLKEYEVSSVRRTKILERAELYTSRIIDDLKKGKRKKPFPYCRLSDLLHKGLFNAFFSRSHLNFSLENGCMGCGVCERVCPVNNITLKNGVPRWGTGCEACHACVHWCPRNVIQIGKSKGRLQYHHPAVKRTMLYRVELEHHHHHH, MGSDKIHHHHHHMSLPYKRWHYFNLIKNSLQKGCLKQQQTLTATTLKRNTIMTVIKQEDFIQSICDAFQFISYYHPKDYIDALYKAWQKEENPAAKDAMTQILVNSRMCAENNRPICQDTGIATVFLKVGMDVQWDADMSVEEMVNEGVRRAYTWEGNTLRASVLADPAGKRQNTKDNTPAVIHMSIVPGDKVEVTCAAKGGGSENKSKLAMLNPSDNIVDWVLKTIPTMGAGWCPPGILGIGIGGTPEKAVLMAKESLMSHIDIQELQEKAASGAELSTTEALRLELFEKVNALGIGAQGLGGLTTVLDVKILDYPTHAASKPIAMIPNCAATRHVEFELDGSGPVELTPPRVEDWPDLTYSPDNGKRVDVDKLTKEEVASWKTGDVLLLNGKILTGRDAAHKRLVDMLDKGEELPVDFTNRLIYYVGPVDPVGDEIVGPAGPTTATRMDKFTRQMLEQTDLLGMIGKSERGAATCEAIADNKAVYLMAVGGAAYLVAKAIKSSKVLAFPELGMEAIYEFEVKDMPVTVAVDSKGESIHATAPPQWQAKIGIIPVKS, MKENFQIHIWLGLLLCLLGMSCSDDTPAKGDDPGNGNTELEVNEWIESVMRSDYLWNNDIPAQNKLDFSADPQTFFRSMLSLKDGKTRNGKHLYYYSYMEKNKDYKARTSIDADDTYGMEFTLFNVVNDSNQPLGYYYARILYVLPNSPASSAGLERGDWIVGVKGRNNINSDNYGILLNGDRTQWLVKRGDTEVRTIDIEASRAVEDNPLFYHNVYTRGDKKIGYLVYNHFTSGPNGYSDRTYDEEMKKIFAGFQAQGVNEFVLDLRYNGGGYENSANMLAGLLIPEASRKKVFAVFSDNKGQSYSNDFCVETKGTAGYLKLNSNRIYILTSQSTASSSEVVINSLNPFMDVILIGELTEGKNVGMEMQKNDKYEWIYWPITLRVTNAVNDDYSAGFKPDIEWNEYDLTQNPTDALLPLGDPDEFMLGKAISLITGINRSARSMNTLGIFSKCL, MTTATSTEPTLELQRLELAELINRHAGEPFGPASAIDDLYLVRYTENVRSVPTLAQPALCILAQGSKSLFLGDEQYAYDPLHYMVVSVTLPLSAVRLDASPENPSLGLRMDLDPAEISQLIAESGPMLVPNRPSGRGLYVERTDAALLDALLRLLRLLDTPRDIAMLAPLFRREILYRLLRGPQGYRLYEIALANSQTHRVCQAITWLNNNFQQPLRIEDLAREVNLSTSTLHHRFKAVTSMSPLQYQKQLRLQEARRLMLNDGLEAAVAAYRVGYESPSQFSREYSRLYGAPPIRDVARLRATAV

Soluble on expression in E. coli, soluble:
MNHQARMRWRCRRGMLELDIVLQRFIDNHYEQLDEHQLELFEMLLSLSDHDLWNIIIGNTKEPNNQFQPVLKLLQENLEHHHHHH, MTSLYLASGSPRRQELLAQLGVTFERIVTGIEEQRQPQESAQQYVVRLAREKARAGVAQTAKDLPVLGADTIVILNGEVLEKPRDAEHAAQMLRKLSGQTHQVMTAVALADSQHILDCLVVTDVTFRTLTDEDIAGYVASDEPLDKAGAYGIQGLGGCFVRKINGSYHAVVGLPLVETYELLSNFNALREKRDKHDG, MSERPVHEYIKELSEALVQLSDKVLQNFNEALYAVTHKDVQSARKIRIVDDEIDQTEVKLEERCLAFLALQQPVARDLRTMVTIIKINDDLERIGDLAVHIIERMPALGHEVMERYQFEKMGNLSATMVRKAIEAFVTRDRLLADNVCAMDEDVDAMHRMIFKKVADAMKACNTDTEQLLAVLSVSRYIERMADHATRIAREVIYLVTGEIVRHSDDTFEKLIQSLKD, MSDQQQPPVYKIALGIEYDGSKYYGWQRQNEVRSVQEKLEKALSQVANEPITVFCAGRTDAGVHGTGQVVHFETTAQRKDAAWTLGVNANLPGDIAVRWVKAVPDDFHARFSATARRYRYIIYNHRLRPAVLSKGVTHFYEPLDAERMHRAAQCLLGENDFTSFRAVQCQSRTPWRNVMHINVTRHGPYVVVDIKANAFVHHMVRNIVGSLMEVGAHNQPESWIAELLAAKDRTLAAATAKAEGLYLVAVDYPDRYDLPKPPMGPLFLAD, MTQPELTPAQRTEVELLARGRADKSRVLRDLKLPETPEAAHALLLRLGVWDEARTPYADRLRAALNAVELPVPDFDPAEERLDLTHLPTFAIDDEGNQDPDDAVGVEDLGGGLTRLWVHVADVAALVAPDSPLDLEARARGATLYLPDRTIGMLPDELVAKAGLGLHEVSPALSICLDLDPDGNAEAVDVLLTRVKVQRLAYQEAQARLEAGEEPFVTLARLARASRRLREGEGALSIDLPEVRVKADETGASVFPLPKPEMRTVVQECMTLAGWGTAIFADDNEIPLPFATQDYPTREVAGDTLPAMWARRKTLARTRFQPSPGPHHGMGLDLYAQATSPMRRYLDLVVHQQLRAFLAGRDPLSSKVMAAHIAESQMNADATRQAERLSRRHHTLRFIAAQPERVWDAVVVDRRGAQATLLIPDLAFDVQVNTPAAPGTALQVQFADIDLPQMRVRARSVLEHHHHHH
